Data published in the supplement of paper PMC9112550, “Optimization of the antimicrobial peptide Bac7 by deep mutational scanning” (BMC Biology, 2022).

Tested on: Escherichia coli TOP10
Assay: shrunken log2 fold change of peptide-encoding DNA abundance (4.5 h post-induction vs induction); higher = less antimicrobial activity (less host growth inhibition)
Settings: time post-induction: 4.5 h; library: site-saturation at positions 5, 18, 19, 20
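Note: peptides expressed intracellularly from a pBAD plasmid library in pooled LB shake-flask culture, induced with 0.3% L-arabinose, DNA abundance read by NGS, three biological replicates, DESeq2 with apeglm shrinkage.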

| Sequence | shrunken log2 fold change |
| --- | --- |
| RRIRMRPPRLPRPRPRPGQAPRP | 0.34 |
| RRIRFRPPRLPRPRPRPLCEPRP | -0.166 |
| RRIRTRPPRLPRPRPRPVVQPRP | -0.062 |
| RRIRMRPPRLPRPRPRPNNAPRP | -0.0978 |
| RRIRVRPPRLPRPRPRPLEMPRP | -0.308 |
| RRIRQRPPRLPRPRPRPVRNPRP | -0.0556 |
| RRIRDRPPRLPRPRPRPMWMPRP | 0.149 |
| RRIRTRPPRLPRPRPRPTGAPRP | 0.323 |
| RRIRCRPPRLPRPRPRPCACPRP | -0.421 |
| RRIRCRPPRLPRPRPRPKGPPRP | 0.348 |
| RRIRKRPPRLPRPRPRPVFSPRP | 0.111 |
| RRIRWRPPRLPRPRPRPCSSPRP | -0.259 |
| RRIRNRPPRLPRPRPRPDCGPRP | 0.0246 |
| RRIRCRPPRLPRPRPRPASRPRP | 0.096 |
| RRIRERPPRLPRPRPRPTELPRP | -0.577 |
| RRIRWRPPRLPRPRPRPPQVPRP | 0.35 |
| RRIRMRPPRLPRPRPRPMEQPRP | 1.29 |
| RRIRDRPPRLPRPRPRPPEVPRP | 0.705 |
| RRIRWRPPRLPRPRPRPLDQPRP | -0.0549 |
| RRIRTRPPRLPRPRPRPGWTPRP | 0.24 |
| RRIRGRPPRLPRPRPRPMCFPRP | 0.716 |
| RRIRCRPPRLPRPRPRPMCIPRP | -0.146 |
| RRIRNRPPRLPRPRPRPAQEPRP | 0.0303 |

| Sequence | shrunken log2 fold change |
| --- | --- |
| RRIRYRPPRLPRPRPRPQDVPRP | -0.103 |
| RRIRSRPPRLPRPRPRPMAWPRP | -0.00175 |
| RRIRPRPPRLPRPRPRPTPVPRP | 0.379 |
| RRIRYRPPRLPRPRPRPFPQPRP | -0.137 |
| RRIRLRPPRLPRPRPRPHVRPRP | 0.0652 |
| RRIRIRPPRLPRPRPRPSYLPRP | -0.831 |
| RRIRVRPPRLPRPRPRPMLNPRP | -0.135 |
| RRIRVRPPRLPRPRPRPPKAPRP | 0.077 |
| RRIRDRPPRLPRPRPRPDSYPRP | -0.0336 |
| RRIRCRPPRLPRPRPRPSMKPRP | -0.567 |
| RRIRDRPPRLPRPRPRPKTRPRP | 0.533 |
| RRIRTRPPRLPRPRPRPMEDPRP | -0.00968 |
| RRIRGRPPRLPRPRPRPGLAPRP | 1.25 |
| RRIRCRPPRLPRPRPRPTKKPRP | -0.000922 |
| RRIRPRPPRLPRPRPRPWHMPRP | -0.0632 |
| RRIRKRPPRLPRPRPRPCRMPRP | -0.00386 |
| RRIRLRPPRLPRPRPRPELTPRP | 0.067 |
| RRIRKRPPRLPRPRPRPISMPRP | -0.00992 |
| RRIRGRPPRLPRPRPRPQMGPRP | 0.339 |
| RRIRGRPPRLPRPRPRPLAAPRP | 1.91 |
| RRIRARPPRLPRPRPRPQVHPRP | 0.102 |
| RRIRTRPPRLPRPRPRPIQIPRP | 0.0193 |
| RRIRTRPPRLPRPRPRPRVNPRP | 0.0441 |

| Sequence | shrunken log2 fold change |
| --- | --- |
| RRIRFRPPRLPRPRPRPACYPRP | -0.066 |
| RRIRCRPPRLPRPRPRPWAAPRP | -0.0941 |
| RRIRKRPPRLPRPRPRPRSGPRP | 0.183 |
| RRIRFRPPRLPRPRPRPSDKPRP | -0.355 |
| RRIRMRPPRLPRPRPRPMSMPRP | 0.11 |
| RRIRIRPPRLPRPRPRPMPYPRP | -0.0219 |
| RRIRNRPPRLPRPRPRPCAYPRP | -0.139 |
| RRIRHRPPRLPRPRPRPAFMPRP | -0.193 |
| RRIRQRPPRLPRPRPRPNVEPRP | -0.0222 |
| RRIRYRPPRLPRPRPRPIWVPRP | -0.0696 |
| RRIRRRPPRLPRPRPRPCGWPRP | 0.776 |
| RRIRNRPPRLPRPRPRPYMPPRP | -0.0173 |
| RRIRKRPPRLPRPRPRPPDSPRP | 0.189 |
| RRIRYRPPRLPRPRPRPPMFPRP | -0.806 |
| RRIRKRPPRLPRPRPRPAWYPRP | 0.205 |
| RRIRRRPPRLPRPRPRPVYNPRP | -0.154 |
| RRIRLRPPRLPRPRPRPHWAPRP | -0.177 |
| RRIRARPPRLPRPRPRPQASPRP | 0.242 |
| RRIRVRPPRLPRPRPRPKWGPRP | 0.155 |
| RRIRFRPPRLPRPRPRPPGFPRP | 0.268 |
| RRIRYRPPRLPRPRPRPPKHPRP | -0.165 |
| RRIRYRPPRLPRPRPRPRATPRP | -0.0516 |
| RRIRNRPPRLPRPRPRPHDCPRP | -0.124 |

| Sequence | shrunken log2 fold change |
| --- | --- |
| RRIRSRPPRLPRPRPRPPFNPRP | -0.298 |
| RRIRIRPPRLPRPRPRPTNAPRP | -0.0508 |
| RRIRGRPPRLPRPRPRPETYPRP | 0.569 |
| RRIRTRPPRLPRPRPRPTHFPRP | 0.301 |
| RRIRNRPPRLPRPRPRPPAWPRP | 0.369 |
| RRIRRRPPRLPRPRPRPIAAPRP | 0.521 |
| RRIRTRPPRLPRPRPRPFGYPRP | 0.0679 |
| RRIRYRPPRLPRPRPRPHRPPRP | 0.0424 |
| RRIRSRPPRLPRPRPRPTKYPRP | -0.52 |
| RRIRRRPPRLPRPRPRPQNYPRP | -0.304 |
| RRIRPRPPRLPRPRPRPAYYPRP | -0.0697 |
| RRIRIRPPRLPRPRPRPQFPPRP | -0.0492 |
| RRIRSRPPRLPRPRPRPGYFPRP | -0.335 |
| RRIRARPPRLPRPRPRPCSQPRP | -0.172 |
| RRIRYRPPRLPRPRPRPTPVPRP | -0.0457 |
| RRIRGRPPRLPRPRPRPIVHPRP | 0.342 |
| RRIRWRPPRLPRPRPRPFATPRP | 0.834 |
| RRIRERPPRLPRPRPRPEKQPRP | -0.00177 |
| RRIRKRPPRLPRPRPRPLYSPRP | -0.105 |
| RRIRKRPPRLPRPRPRPEKDPRP | 0.518 |
| RRIRPRPPRLPRPRPRPAYPPRP | 0.0124 |
| RRIRGRPPRLPRPRPRPKSSPRP | 0.508 |
